The record followed here is patent publication US20200308270A1.

In general, Kd refers to the free concentration of one partner at which half of the binding sites on the other are occupied at equilibrium, for simple one-to-one binding.

Test [1] has as its target human recombinant FcgammaR receptor CD32aH (human) (UniProt P12318). Kind of test: SPR (ProteOn), Mab captured via anti-human Fc, FcgammaR analyte.
Test [2] addresses human recombinant FcgammaR receptor CD32bF (human) (UniProt P31994). The description is as above.

Sequence of CAT-2200 wild-type lambda Mab (antibody) (heavy): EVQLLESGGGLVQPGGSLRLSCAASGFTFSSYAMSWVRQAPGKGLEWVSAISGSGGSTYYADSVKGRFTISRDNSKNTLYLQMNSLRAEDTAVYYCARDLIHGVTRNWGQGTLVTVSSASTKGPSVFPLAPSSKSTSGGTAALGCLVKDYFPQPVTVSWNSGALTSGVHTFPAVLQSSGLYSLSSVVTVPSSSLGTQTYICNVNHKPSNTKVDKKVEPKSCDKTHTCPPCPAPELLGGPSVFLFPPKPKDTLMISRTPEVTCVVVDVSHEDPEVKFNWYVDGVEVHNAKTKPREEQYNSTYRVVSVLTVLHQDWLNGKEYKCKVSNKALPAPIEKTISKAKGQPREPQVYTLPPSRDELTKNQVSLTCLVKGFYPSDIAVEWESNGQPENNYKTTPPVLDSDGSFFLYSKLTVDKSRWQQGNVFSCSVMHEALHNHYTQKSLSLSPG
Sequence of CAT-2200 wild-type lambda Mab (antibody) (light): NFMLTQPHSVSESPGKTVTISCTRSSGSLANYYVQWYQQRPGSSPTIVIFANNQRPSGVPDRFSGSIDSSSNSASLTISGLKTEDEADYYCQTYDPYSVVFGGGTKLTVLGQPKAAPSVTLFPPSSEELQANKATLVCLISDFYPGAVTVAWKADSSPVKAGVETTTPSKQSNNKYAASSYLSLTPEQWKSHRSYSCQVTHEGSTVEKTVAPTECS
Sequence of human recombinant FcgammaR receptor CD32aH (human) (P12318 34-217): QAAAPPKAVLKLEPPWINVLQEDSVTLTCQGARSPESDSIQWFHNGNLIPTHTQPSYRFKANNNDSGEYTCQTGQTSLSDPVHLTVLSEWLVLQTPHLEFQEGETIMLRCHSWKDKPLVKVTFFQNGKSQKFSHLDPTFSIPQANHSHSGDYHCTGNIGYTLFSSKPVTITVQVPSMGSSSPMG

On to “CAT-2200 wild-type lambda Mab (antibody)”, for which the Kd stood at 700 nM in test [1] and 2900 nM in test [2].
